According to publication PMC3893235 (mAbs, 2013):
Numbering of substitutions follows the chain as printed. Blank lines part the entries; values can stand above or below the binder they belong to.

Columns and labels:
biotinylated huAng2 [1] = target: T1, biotinylated huAng2 (human, UniProt O15123, biotin); experiment: ELISA
human Ang2 protein = human Ang2 protein (Homo sapiens (Human)., UniProt O15123); experiment: KinExA
biotinylated huAng2 [2] = target: T1, biotinylated huAng2; experiment: ELISA; remark: listed apart in the source
human Tie2-Fc = human Tie2-Fc (human, UniProt Q02763 23-748); experiment: ELISA
Sequence of human Tie2-Fc (Q02763 23-748): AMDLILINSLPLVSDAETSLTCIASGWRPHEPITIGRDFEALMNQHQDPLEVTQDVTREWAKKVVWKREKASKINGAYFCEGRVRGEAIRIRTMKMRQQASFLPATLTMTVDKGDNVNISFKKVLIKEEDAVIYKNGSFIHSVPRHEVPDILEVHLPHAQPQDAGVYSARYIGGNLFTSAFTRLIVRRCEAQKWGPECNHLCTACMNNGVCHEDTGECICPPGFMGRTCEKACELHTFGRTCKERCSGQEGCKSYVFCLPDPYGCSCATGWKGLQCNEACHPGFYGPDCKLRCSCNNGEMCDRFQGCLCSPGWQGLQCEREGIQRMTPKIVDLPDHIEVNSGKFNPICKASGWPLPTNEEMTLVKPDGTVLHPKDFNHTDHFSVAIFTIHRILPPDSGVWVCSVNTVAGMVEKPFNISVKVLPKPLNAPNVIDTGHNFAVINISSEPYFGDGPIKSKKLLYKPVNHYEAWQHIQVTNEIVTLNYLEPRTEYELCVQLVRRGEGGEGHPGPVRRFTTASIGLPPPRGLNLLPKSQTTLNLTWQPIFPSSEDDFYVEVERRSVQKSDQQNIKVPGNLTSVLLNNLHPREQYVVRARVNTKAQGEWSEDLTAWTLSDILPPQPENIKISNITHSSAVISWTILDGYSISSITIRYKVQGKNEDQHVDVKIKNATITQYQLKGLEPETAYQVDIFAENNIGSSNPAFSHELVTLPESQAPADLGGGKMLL

binding result (biotinylated huAng2 [2]): binds
B3: Cys49Asn (antibody, V domains shown)
VH: QVQLVESGGGVVQPGRSLRLSCAASGFTFTNYGMHWGRQAPGKGLEWVAVISHDGNNKYYVDSVKGRFTISRDNSKNTLYLQMNSLRAEDTAVYYCAREGIDFWSGLNWFDPWGQGTLVTVSS
VL: EIVLTQSPGTLSLSPGERATLSCRASQSITGSYLAWYQQKPGQAPRLLINGASSWATGIPDRFSGSGSGTDFTLTISRLEPEDFAVYYCQQYSSSPITFGQGTRLEIK

binding result (biotinylated huAng2 [2]): binds
B5: Ang2 mAb variant Cys49Phe (antibody, V domains shown)
VH: B3 VH
VL: B3 VL with N50F

binding result (biotinylated huAng2 [2]): binds
B6: Ang2 mAb variant Cys49Glu (antibody, V domains shown)
VH: B3 VH
VL: B3 VL with N50E

binding result (human Tie2-Fc): binds
B9: biotinylated huAng2 (ligand, human, UniProt O15123 19-496, looked up)
chain: YNNFRKSMDSIGKKQYQVQHGSCSYTFLLPEMDNCRSSSSPYVSNAVQRDAPLEYDDSVQRLQVLENIMENNTQWLMKLENYIQDNMKKEMVEIQQNAVQNQTAVMIEIGTNLLNQTAEQTRKLTDVEAQVLNQTTRLELQLLEHSLSTNKLEKQILDQTSEINKLQDKNSFLEKKVLAMEDKHIIQLQSIKEEKDQLQVLVSKQNSIIEELEKKIVTATVNNSVLQKQQHDLMETVNNLLTMMSTSNSAKDPTVAKEEQISFRDCAEVFKSGHTTNGIYTLTFPNSTEEIKAYCDMEAGGGGWTIIQRREDGSVDFQRTWKEYKVGFGNPSGEYWLGNEFVSQLTNQQRYVLKIHLKDWEGNEAYSLYEHFYLSSEELNYRIHLKGLTGTAGKISSISQPGNDFSTKDGDNDKCICKCSQMLTGGWWFDACGPSNLNGMYYPQRQNTNKFNGIKWYYWKGSGYSLKATTMMIRPADF
modifications: biotin

Second part, the binder before the results:

B1: Ang2 mAb (antibody, V domains shown)
VH: B3 VH
VL: B3 VL with N50C
IC50 (biotinylated huAng2 [1]): 200 pM | Kd (human Ang2 protein): 24.5 pM

B2: Cys49Asp (antibody, V domains shown)
VH: B3 VH
VL: B3 VL with N50D
binding result (biotinylated huAng2 [2]): binds

B4: Ang2 mAb variant Cys49Ala (antibody, V domains shown)
VH: B3 VH
VL: B3 VL with N50A
fold change of potency against Ang2 mAb (biotinylated huAng2 [2]): ≤ 2.5 fold

B7: Cys49Thr mAb (antibody, V domains shown)
VH: B3 VH
VL: B3 VL with N50T
IC50 (biotinylated huAng2 [1]): 280 pM | Kd (human Ang2 protein): 37 pM

B8: Ang2 mAb variant Cys49Gly (antibody, V domains shown)
VH: B3 VH
VL: B3 VL with N50G
fold change of potency against Ang2 mAb (biotinylated huAng2 [2]): ≤ 2.5 fold
